As usually defined, the half-life is the time needed for the level to fall by half in the phase considered. The term AUC(0-inf) denotes total exposure, with the tail of the curve extrapolated. A high value points to high exposure. As a reminder, the Cmax is the highest concentration seen after dosing.

Series [1] concerns embolic occlusion of the middle cerebral artery in male Sprague-Dawley rats. Description: Embolic stroke model in SD rat (Examples 1, 4-6). Type of series: in vivo, Sprague-Dawley rat. The note with it: for Mean neurological deficit scores (NDS): 24 hours after drug administration. On the procedure:
A 10% chloral hydrate solution (400 mg/kg) was injected intraperitoneally into SD male rats (240-320 g) for anesthesia. A vertical incision of about 2 cm in length was made on the right side near the center of the neck, and the right common carotid artery (CCA), external carotid artery (ECA) and internal carotid artery (ICA) were separated along the margin of the inner side of sternocleidomastoid muscles. The incision at the internal carotid artery and the proximal end of the common carotid artery were clipped respectively with noninvasive arterial clips. A small incision was made on the external carotid artery, and the distal end of the external carotid artery was ligated. The arterial clip at the proximal end of the common carotid artery was released, and 10 μl blood was drawn. After blood was drawn, the proximal end of the common carotid artery was again clipped with a noninvasive arterial clip. The 10 μl blood drawn was placed in a 1 mL EP vial and kept at RT for 30 min to allow the coagulation of blood and then transferred into a −20° C. refrigerator for 1 hour to allow the formation of solid coagulation. 1 hour later, the blood clots were taken out, 1 mL normal saline was added therein, and then the blood clots were broken into relatively uniform microthrombus by a steel spatula. The microthrombus suspension was then transferred into a 1 mL injector for use. When the clip on the internal carotid artery of the rat was released, the 1 mL thrombus suspension in the injector was slowly injected from the external carotid artery of the rat to its proximal end, and then was injected into the brain of the rat through the internal carotid artery. Subsequently, the proximal end of the external carotid artery was ligated, the arterial clips on the internal carotid artery and the common carotid artery were released, and blood flow was restored. The common jugular vein was separated, and then injected with normal saline solution, or tested compound. The vein was ligated. 3 drops of penicillin was dropped on the wound. The wound was sewed, and animals were waited for awake.
24 hours after the rats were awake, the degree of damage in neural function was evaluated by the Zealonga method. A score of 0 indicated no sign of loss in neural function, 1 indicated the front limbs on the undamaged side could not stretch out, 2 indicated walking toward the undamaged side, 3 indicated tail-chasing walking in circles toward the undamaged side, 4 indicated involuntary walking with disturbance of consciousness, and 5 indicated death. The evaluation results were statistically analyzed and subjected to t-test.
After the rats were awake for 24 hours and assessed for their degree of damage in neural function by Zealonga method, they were anesthetized with urethane followed by immediate decapitation and removal of the brain. Brain tissues were kept in a −20° C. refrigerator for 2 hours, and coronal sections of about 2 mm were successively sliced from the prefrontal end for a total of 5 sections and then placed into a 2% TTC solution to incubate without light at 37° C. for 30 min. The color change in brain sections was observed: normal brain tissues were stained red by TTC, while ischemic brain tissues appeared in white. Photographs were taken by using a digital camera and processed with image statistics software, and the volume of infarction in brain tissues and the area of normal brain tissues in the coronal sections were calculated. The ratio of the cerebral infarction volume of each group was statistically calculated and subject to t-test.
An embolic occlusion of the middle cerebral artery in male Sprague-Dawley rats was induced by introducing blood clots into the carotid artery. Rats were treated with vehicle (saline), rtPA (10 mg/kg, IV bolus injection), or DC009 (0.007 mg/kg, IV bolus injection) after 3 hours of stroke onset (n=12-13 per treatment group). […]

Series [2] concerns patients with Acute Ischemic Stroke (AIS). Briefly: Study 201: Phase 2 single-dose study in patients with Acute Ischemic Stroke, efficacy (NIHSS, mRS). It counts as in vivo, human. Particulars: Day 90. The source says:
The objective of this Phase 2, double-blind, single-dose, randomized, placebo-controlled study is to evaluate the safety, tolerability, and potential efficacy of DC009 drug product in patients with Acute Ischemic Stroke (AIS). The safety and potential efficacy outcomes from this Phase 2 study will guide the design of future studies in patients with acute ischemic stroke. Eligible patients will be randomized 2:1 to receive DC009 drug product or placebo via a 15-minute IV infusion to obtain a total of approximately 24 evaluable patients. Eligible patients will receive a single 0.025 mg/kg dose of DC009 drug product or placebo within 24 hours after the onset of stroke symptoms.
The key inclusion criteria are as follows: Subject a) are to be aged 18-90 years, inclusive, at the time of screening, b) have a NIHSS of 4-30, c) clinical diagnosis of AIS within 24 hours after stroke symptom onset.
Tissue plasminogen activator (alteplase) is the only approved drug treatment for stroke in the US and, per the labeling, must be administered within 3 hours of stroke symptom onset. The approved window of administration in other countries varies. Because there is no approved drug treatment for acute ischemic stroke for administration beyond 3 hours of stroke symptom onset in the US, a placebo-controlled study would be ethically acceptable and is necessary in order to evaluate the drug effect objectively. Preliminary efficacy will be evaluated by assessing the infarct volume, occurrence of recurrent stroke, neurological outcome measured by NIHSS and functional independence measured by Modified Rankin Scale (mRS).
• The occurrence of symptomatic intracranial hemorrhage (sICH) within 36 hours after dosing, clinical deterioration defined as an increase in the NIHSS of 4 points or more and confirmed by computed tomography or magnetic resonance imaging. Secondary Endpoint: • The occurrence of symptomatic intracranial hemorrhage (sICH) and asymptomatic intracranial hemorrhage (aICH) within 7 days after dosing • The occurrence of mortality due to intracerebral or other major bleeding complications within 24 hours, 7 days, 30 days, and 90 days after dosing. • Number and severity of AEs within 90 days after dosing • The occurrence of recurrent stroke within 90 days after dosing • Functional outcome such as mRS • Neurological outcome such as NIHSS at 30 days • The change of infarct volume in CT or MRI examination at 24 hours and 7 days • Plasma PK parameters of DC009 Results Baseline Characterization

Series [3] can be described thus: Human plasma pharmacokinetics, summary statements of the description. Type of series: in vivo.
Series [4] can be described thus: Plasma pharmacokinetics after single IV bolus in Sprague Dawley rat. It counts as in vivo. The note with it: for AUC(0-inf) / Cmax / AUC(0-t): male, Sprague-Dawley, rat, plasma, n=3; for AUC(0-t): read-out: AUClast, Mean (converted). On the procedure: The plasma pharmacokinetics of DC009 was studied in SD Rat following a single IV bolus administration of DC009. Male SD rats were dosed with DC009 at 0.001, 0.01, 0.1, 1 and 10 mg/kg by intravenous bolus injection with a dose volume of 1 mL/kg (n=3 per treatment group).

The test system of series [5] is subjects with acute ischemic stroke (AIS). The note with it: cited from earlier work.
Where [6] appears, read: 0.001 mg/kg IV bolus, some concentrations below LLOQ 5 ng/mL.
Setting [7] is: 0.01 mg/kg IV bolus, some concentrations below LLOQ 5 ng/mL.

Where two headings read alike, the source gives them in different places.

Consider `CC(NC(=O)C1CCCN1)C(=O)NC(CCCCN)C(=O)NCCCCC(NC(=O)C1Cc2cc(O)c(O)cc2C(C)(C)N1)C(=O)O` (stereo not drawn) [DC009, 3S-6,7-dihydroxy-1,1-dimethyl-1,2,3,4-tetrahydro-isoquinoline-3-acyl-Lys(Pro-Ala-Lys)], for which the “infarct volumes (% hemisphere)” value in series [1] (DC009 0.0007 mg/kg IV bolus from 24 hours after stroke onset, once daily for 6 days, 7 days after stroke) turned out to be 9.95 ± 10.32% hemisphere. The “effective dose in the rat Embolic Stroke Model” value in series [1] (data from Example 4-6) lay within 7 to 70 µg/kg. Besides, the “subjects with mRS of 0-1” value in series [2] (pre-dose 0%, 3 subjects) amounted to 21%. In series [2] (pre-dose 6%), the “subjects with mRS Score 3” value is on record as 29%. The “subjects with mRS Score 2” value in series [2] (pre-dose 13%) was determined as 29%. Moreover, the “subjects with mRS Score 5 or 4” value in series [2] (pre-dose 81%) is listed as 21%. In addition, the “accumulation on multiple doses” value in series [3] (administration of multiple doses) is “does not lead the accumulation”. The “plasma level after dosing” value in series [3] (human plasma, 30 minutes after dosing) was “almost un-measurable”. For the same compound, the half-life in series [3] (human plasma, read-out: elimination half-life) is less than 5 min. Moreover, the “dose proportionality of Cmax and AUC0-∞” value in series [4] (dose of 0.1 to 10 mg/kg groups) is “approximately dose-proportional increases”. The AUC(0-inf) is 1.88 ng·h/mL in series [4] (setting [6]); 4.04 ng·h/mL in series [4] (setting [7]); 8.31 ng·h/mL in series [4] (0.1 mg/kg IV bolus); 53.2 ng·h/mL in series [4] (1 mg/kg IV bolus); 937 ng·h/mL in series [4] (10 mg/kg IV bolus). Further, the Cmax in series [4] (setting [6]) was determined as 1.6 ng/mL; in series [4] (setting [7]) it was 6.1 ng/mL; in series [4] (0.1 mg/kg IV bolus), 59.9 ng/mL; in series [4] (1 mg/kg IV bolus), 426 ng/mL; in series [4] (10 mg/kg IV bolus) it was 8120 ng/mL. Besides, the AUC(0-t) in series [4] (setting [6]) was 1.76 ng·h/mL; in series [4] (setting [7]) it was 3.35 ng·h/mL; in series [4] (0.1 mg/kg IV bolus), 7.89 ng·h/mL; in series [4] (1 mg/kg IV bolus) it was 52.8 ng·h/mL; in series [4] (10 mg/kg IV bolus) it was 936 ng·h/mL.
Consider “rtPA: Alteplase (Activase), a recombinant tissue-type plasminogen activator (rtPA) [reference compound]”, for which the “risk of symptomatic intracerebral hemorrhage” value in series [5] was approximately 5 fold. In addition, the “Mean neurological deficit scores (NDS)” value in series [1] (rtPA 3 mg/kg IV bolus 6 hours after stroke onset, 6-point scale) was determined as 3.27 ± 1.85; in series [1] (rtPA 10 mg/kg IV bolus 3 hours after stroke onset, scale 0-5) it was 2.13 ± 1.173. For the same compound, the “infarct volumes (% hemisphere)” value in series [1] (rtPA 3 mg/kg IV bolus 6 hours after stroke onset, 24 hours, TTC) was 17.90 ± 7.47% hemisphere; in series [1] (rtPA 10 mg/kg IV bolus 3 hours after stroke onset, 24 hours, TTC), 12.74 ± 9.02% hemisphere.

Values taken from patent US12648942B2, “Method for treating acute ischemic stroke” (Lumosa Therapeutics Co., LTD, priority 2021, dated 2026).
